Experimental data from patent publication US20260226161A1 (EXELIXIS, published 2026).

Key:
Cyno PD-L1 = Cyno PD-L1 (cyno, UniProt G7PSE7 19-238); assay: SPR (Carterra), antibody on chip, soluble antigen
[1] = target: T1, Human PD-L1 with His tag (AcroBiosystems) (human, UniProt Q9NZQ7 19-238); assay: SPR (Carterra), antibody on chip, soluble antigen
T1 construct: Bought protein; also called hPD-L1; not shown: His tag

[2] = target: T2, Human NKG2A & CD94 with mouse IgG2a Fc tag (AcroBiosystems) (human, UniProt P26715 94-233; Q13241 32-179, limits assumed); assay: SPR (Carterra), antibody on chip, soluble antigen
T2 construct: Bought soluble antigen of the Carterra assay; also called hNKG2A; not shown: mouse IgG2a Fc tag

PD-L1 expressed on cells [3] = target: T3, PD-L1 expressed on cells (UniProt Q9NZQ7 19-290, limits assumed); assay: flow cytometry on MC/CAR cells expressing PD-L1
T3 construct: whole, on cells; also called MC/CAR cells expressing PD-L1; PD-L1+MDA-MB-231 cells
Protocol: (§1) Cells were collected by centrifugation at 400×g for 7 minutes and primary antibody was removed. 50 μL per well of AF488 goat anti human IgG Fab (Jackson Immuno Research 109-547-003) at 1:100 dilution was added. Plates were placed at 4° C. for 30 minutes.
(§2) Cells were collected by centrifugation at 400×g for 7 minutes and secondary antibody was removed. Cells were resuspended in 50 μL per well of PBS and analyzed by flow cytometry. Binding curves were calculated using the mean fluorescence intensity (MFI) of the FITC fluorescence signal on the cells. Bispecific antibody binding was evaluated in KHYG-1 cells expressing endogenous NKG2A and in MC/CAR cells expressing PD-L1. Cells were harvested and assayed for binding as described above.

[4] = target: T4, NKG2A expressed on KHYG-1 cells (endogenous) (human, UniProt P26715 1-233; Q13241 1-179); assay: flow cytometry on KHYG-1 cells expressing endogenous NKG2A
T4 construct: whole, on cells; Surface NKG2A copy number of approximately 10-20K; also called KHYG-1 cells expressing endogenous NKG2A; NKG2A-expressing cells
Protocol: as §1, §2

PD-L1 expressed on cells [5] = target: T3, PD-L1 expressed on cells; assay: cell-based or functional assay
[6] = target: T4, NKG2A expressed on KHYG-1 cells …; assay: flow cytometry competition; inhibition of HLA-E tetramer binding to KHYG-1 cells
Protocol: 15 μL per well of binder dilution at 2× concentration was plated in a 96-well plate (Costar 3897). 15 μL per well of cell suspension at 5×10⁶ cells per mL was added. Plates were placed at 4° C. for 30 minutes. Following the incubation, 5 μL per well of Fc block (BD Pharmingen Cat #564220) was added at a final concentration of 500 ng per well. Plates were placed at 4° C. for 10 minutes. […] Plates were placed at 4° C. for 1 hour. Following the incubation, 100 μL per well of PBS was added and plate was centrifuged at 400×g for 7 minutes. Supernatant was removed by flicking the plate. Cells were resuspended in 50 μL per well of PBS and analyzed by flow cytometry (Intellicyt).

Chain of Cyno PD-L1 (G7PSE7 entry or part of it limits assumed): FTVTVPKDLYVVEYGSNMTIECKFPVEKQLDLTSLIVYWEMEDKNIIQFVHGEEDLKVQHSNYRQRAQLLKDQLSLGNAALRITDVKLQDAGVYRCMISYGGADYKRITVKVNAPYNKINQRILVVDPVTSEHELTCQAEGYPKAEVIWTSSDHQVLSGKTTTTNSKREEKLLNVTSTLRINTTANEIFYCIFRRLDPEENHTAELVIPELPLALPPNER
T3 sequence (Q9NZQ7 19-290 limits assumed): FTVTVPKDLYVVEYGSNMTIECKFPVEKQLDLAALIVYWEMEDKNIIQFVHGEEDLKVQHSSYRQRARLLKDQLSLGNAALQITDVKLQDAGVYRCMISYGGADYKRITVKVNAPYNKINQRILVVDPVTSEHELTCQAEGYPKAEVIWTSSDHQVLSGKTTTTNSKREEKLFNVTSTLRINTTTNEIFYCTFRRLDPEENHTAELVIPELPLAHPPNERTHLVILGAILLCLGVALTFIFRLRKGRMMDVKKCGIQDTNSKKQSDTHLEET
T4 sequence (P26715 whole entry, chain 1 of 2): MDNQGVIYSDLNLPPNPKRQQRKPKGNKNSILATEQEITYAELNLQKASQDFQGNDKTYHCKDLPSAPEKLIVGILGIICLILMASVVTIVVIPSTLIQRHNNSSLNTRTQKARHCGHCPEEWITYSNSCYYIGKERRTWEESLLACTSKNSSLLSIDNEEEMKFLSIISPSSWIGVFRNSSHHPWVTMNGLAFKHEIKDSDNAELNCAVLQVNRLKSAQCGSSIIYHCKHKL
T4 sequence (Q13241 whole entry, chain 2 of 2): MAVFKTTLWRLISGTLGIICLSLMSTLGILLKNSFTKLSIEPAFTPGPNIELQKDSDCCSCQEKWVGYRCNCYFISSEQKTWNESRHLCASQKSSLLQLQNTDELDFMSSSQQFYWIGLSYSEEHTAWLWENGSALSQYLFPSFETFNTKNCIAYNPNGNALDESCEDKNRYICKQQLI
T2 sequence (P26715 94-233 limits assumed, chain 1 of 2): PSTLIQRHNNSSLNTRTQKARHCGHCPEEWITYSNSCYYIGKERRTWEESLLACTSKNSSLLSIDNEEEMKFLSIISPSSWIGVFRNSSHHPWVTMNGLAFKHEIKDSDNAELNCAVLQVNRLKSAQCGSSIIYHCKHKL
T2 sequence (Q13241 32-179 limits assumed, chain 2 of 2): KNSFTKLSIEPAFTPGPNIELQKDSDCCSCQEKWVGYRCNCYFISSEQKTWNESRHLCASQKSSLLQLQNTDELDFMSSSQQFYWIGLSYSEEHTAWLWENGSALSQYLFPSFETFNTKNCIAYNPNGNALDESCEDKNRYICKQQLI
T1 sequence (Q9NZQ7 19-238 limits assumed): as the sequence (G7PSE7 entry or part of it limits assumed) above, with T33A, S34A, N62S, Q68R, R82Q, L173F, A185T, I192T, L215H counted along it

Row | Kd (Cyno PD-L1) | koff (Cyno PD-L1) | kon (Cyno PD-L1) | Kd [1] | koff [1] | kon [1] | Kd [2] | koff [2] | kon [2] | EC50 (PD-L1 expressed on cells [3]) | EC50 [4] | IC50 of inhibiting PD-1/PD-L1 interaction in PD-L1+MDA-MB-231 cells (PD-1/PD-L1 Signaling Bioassay, chemiluminescent signal) (PD-L1 expressed on cells [5]) | EC50 [6] | Binder
1 | 120 pM | 5e-05 s⁻¹ | 480000 M⁻¹ s⁻¹ | 150 pM | 7e-05 s⁻¹ | 470000 M⁻¹ s⁻¹ | 150 pM | 5e-05 s⁻¹ | 360000 M⁻¹ s⁻¹ | 6490 pM | 149 pM | 689 pM | 360 pM | P12 × A2A2 (1 × 2 format) (bispecific antibody, One PD-L1 site, two NKG2A sites; also called P12×A2A2, sFc; P12 × A2A2 sFc) heavy 1: DIQMTQSPSSLSASVGDRVTITCRASQSVSSAVAWYQQKPGKAPKLLIYSASSLYSGVPSRFSGSRSGTDFTLTISSLQPEDFATYYCQQFMLEPITFGQGTKVEIKGQPREPQVCTLPPSRDELTKNQVSLTCLVRGFYPSDIAVEWESNGQPENNYKTTPPVLDSDGSFFLYSKLTVDKSRWQQGNVFSCSVMHEALHNHYTQKSLSLSPGKDKTHTCPPCPAPEAAGGPSVFLFPPKPKDTLMISRTPEVTCVVVDVSHEDPEVKFNWYVDGVEVHNAKTKPREEQYNSTYRVVSVLTVLHQDWLNGKEYKCKVSNKALKAPIEKTISKAKGQPREPQVYTLPPSREEMTKNQVSLSCAVKGFYPSDIAVEWESNGQPENNYKTTPPVLDSDGSFFLVSKLTVDKSRWQQGNVFSCSVMHEALHNHYTQKSLSLSPGK light 1: EVQLVESGGGLVQPGGSLRLSCAASGFTFSSYYIHWVRQAPGKGLEWVATINSRGGFTLYADSVKGRFTISADTSKNTAYLQMNSLRAEDTAVYYCARGYTLTPVLDYWGQGTLVTVSSAQPREPQVYTLPPCRDWLTKNQVSLTCLVKGFYPSDIAVEWESNGQPENNYKTTPPVLDSDGSFFLYSKLTVDKSRWQQGNVFSCSVMHEALHNHYTQKSLSLSPGK heavy 2: not shown light 2: EVQLVESGGGLVQPGGSLRLSCAASGFTFSSYYIHWVRQAPGKGLEWVASYVPEDGYTDYADSVKGRFTISADTSKNTAYLQMNSLRAEDTAVYYCARSSDFIPWTSSGGMDYWGQGTLVTVSSASTKGPSVFPLAPSSKSTSGGTAALGCLVKDYFPEPVTVSWNSGALTSGVHTFPAVLQSSGLYSLSSVVTVPSSSLGTQTYICNVNHKPSNTKVDKKVEPKSC
2 |  |  |  |  |  |  |  |  |  | 3230 pM | 1990 pM | 405 pM |  | P12P12 × A11 (2 × 1 format) (bispecific antibody, Two PD-L1 sites, one NKG2A site; also called P12P12 × A11 sFc) heavy 1: DIQMTQSPSSLSASVGDRVTITCRASQSVSSAVAWYQQKPGKAPKLLIYSASSLYSGVPSRFSGSRSGTDFTLTISSLQPEDFATYYCQQFMLEPITFGQGTKVEIKGQPREPQVCTLPPSRDELTKNQVSLTCLVRGFYPSDIAVEWESNGQPENNYKTTPPVLDSDGSFFLYSKLTVDKSRWQQGNVFSCSVMHEALHNHYTQKSLSLSPGKTASSGGSSSGDIQMTQSPSSLSASVGDRVTITCRASQSVSSAVAWYQQKPGKAPKLLIYSASSLYSGVPSRFSGSRSGTDFTLTISSLQPEDFATYYCQQFMLEPITFGQGTKVEIKGQPREPQVCTLPPSRDELTKNQVSLTCLVRGFYPSDIAVEWESNGQPENNYKTTPPVLDSDGSFFLYSKLTVDKSRWQQGNVFSCSVMHEALHNHYTQKSLSLSPGKDKTHTCPPCPAPEAAGGPSVFLFPPKPKDTLMISRTPEVTCVVVDVSHEDPEVKFNWYVDGVEVHNAKTKPREEQYNSTYRVVSVLTVLHQDWLNGKEYKCKVSNKALKAPIEKTISKAKGQPREPQVYTLPPSREEMTKNQVSLSCAVKGFYPSDIAVEWESNGQPENNYKTTPPVLDSDGSFFLVSKLTVDKSRWQQGNVFSCSVMHEALHNHYTQKSLSLSPGK light 1: EVQLVESGGGLVQPGGSLRLSCAASGFTFSSYYIHWVRQAPGKGLEWVATINSRGGFTLYADSVKGRFTISADTSKNTAYLQMNSLRAEDTAVYYCARGYTLTPVLDYWGQGTLVTVSSAQPREPQVYTLPPCRDWLTKNQVSLTCLVKGFYPSDIAVEWESNGQPENNYKTTPPVLDSDGSFFLYSKLTVDKSRWQQGNVFSCSVMHEALHNHYTQKSLSLSPGK heavy 2: not shown light 2: EVQLVESGGGLVQPGGSLRLSCAASGFTFSWYYIHWVRQAPGKGLEWVAVIDPISSYTYYADSVKGRFTISADTSKNTAYLQMNSLRAEDTAVYYCARGFDRAMDYWGQGTLVTVSSASTKGPSVFPLAPSSKSTSGGTAALGCLVKDYFPEPVTVSWNSGALTSGVHTFPAVLQSSGLYSLSSVVTVPSSSLGTQTYICNVNHKPSNTKVDKKVEPKSC
3 |  |  |  |  |  |  |  |  |  | 8670 pM | 827 pM | 714 pM | 46400 pM | P12P12 × A2 (2 × 1 format) (bispecific antibody, Two PD-L1 sites, one NKG2A site; also called P12P12 × A2 sFc) heavy 1: DIQMTQSPSSLSASVGDRVTITCRASQSVSSAVAWYQQKPGKAPKLLIYSASSLYSGVPSRFSGSRSGTDFTLTISSLQPEDFATYYCQQFMLEPITFGQGTKVEIKGQPREPQVCTLPPSRDELTKNQVSLTCLVRGFYPSDIAVEWESNGQPENNYKTTPPVLDSDGSFFLYSKLTVDKSRWQQGNVFSCSVMHEALHNHYTQKSLSLSPGKTASSGGSSSGDIQMTQSPSSLSASVGDRVTITCRASQSVSSAVAWYQQKPGKAPKLLIYSASSLYSGVPSRFSGSRSGTDFTLTISSLQPEDFATYYCQQFMLEPITFGQGTKVEIKGQPREPQVCTLPPSRDELTKNQVSLTCLVRGFYPSDIAVEWESNGQPENNYKTTPPVLDSDGSFFLYSKLTVDKSRWQQGNVFSCSVMHEALHNHYTQKSLSLSPGKDKTHTCPPCPAPEAAGGPSVFLFPPKPKDTLMISRTPEVTCVVVDVSHEDPEVKFNWYVDGVEVHNAKTKPREEQYNSTYRVVSVLTVLHQDWLNGKEYKCKVSNKALKAPIEKTISKAKGQPREPQVYTLPPSREEMTKNQVSLSCAVKGFYPSDIAVEWESNGQPENNYKTTPPVLDSDGSFFLVSKLTVDKSRWQQGNVFSCSVMHEALHNHYTQKSLSLSPGK light 1: EVQLVESGGGLVQPGGSLRLSCAASGFTFSSYYIHWVRQAPGKGLEWVATINSRGGFTLYADSVKGRFTISADTSKNTAYLQMNSLRAEDTAVYYCARGYTLTPVLDYWGQGTLVTVSSAQPREPQVYTLPPCRDWLTKNQVSLTCLVKGFYPSDIAVEWESNGQPENNYKTTPPVLDSDGSFFLYSKLTVDKSRWQQGNVFSCSVMHEALHNHYTQKSLSLSPGK heavy 2: not shown light 2: EVQLVESGGGLVQPGGSLRLSCAASGFTFSSYYIHWVRQAPGKGLEWVASYVPEDGYTDYADSVKGRFTISADTSKNTAYLQMNSLRAEDTAVYYCARSSDFIPWTSSGGMDYWGQGTLVTVSSASTKGPSVFPLAPSSKSTSGGTAALGCLVKDYFPEPVTVSWNSGALTSGVHTFPAVLQSSGLYSLSSVVTVPSSSLGTQTYICNVNHKPSNTKVDKKVEPKSC
4 | 130 pM | 6e-05 s⁻¹ | 470000 M⁻¹ s⁻¹ | 240 pM | 9e-05 s⁻¹ | 380000 M⁻¹ s⁻¹ | 340 pM | 9e-05 s⁻¹ | 270000 M⁻¹ s⁻¹ | 1760 pM | 168 pM | 567 pM | 420 pM | P12 × A11A11 (1 × 2 format) (bispecific antibody, One PD-L1 site, two NKG2A sites; also called P12×A11A11, sFc; P12 × A11A11 sFc) heavy 1: DIQMTQSPSSLSASVGDRVTITCRASQSVSSAVAWYQQKPGKAPKLLIYSASSLYSGVPSRFSGSRSGTDFTLTISSLQPEDFATYYCQQFMLEPITFGQGTKVEIKGQPREPQVCTLPPSRDELTKNQVSLTCLVRGFYPSDIAVEWESNGQPENNYKTTPPVLDSDGSFFLYSKLTVDKSRWQQGNVFSCSVMHEALHNHYTQKSLSLSPGKDKTHTCPPCPAPEAAGGPSVFLFPPKPKDTLMISRTPEVTCVVVDVSHEDPEVKFNWYVDGVEVHNAKTKPREEQYNSTYRVVSVLTVLHQDWLNGKEYKCKVSNKALKAPIEKTISKAKGQPREPQVYTLPPSREEMTKNQVSLSCAVKGFYPSDIAVEWESNGQPENNYKTTPPVLDSDGSFFLVSKLTVDKSRWQQGNVFSCSVMHEALHNHYTQKSLSLSPGK light 1: EVQLVESGGGLVQPGGSLRLSCAASGFTFSSYYIHWVRQAPGKGLEWVATINSRGGFTLYADSVKGRFTISADTSKNTAYLQMNSLRAEDTAVYYCARGYTLTPVLDYWGQGTLVTVSSAQPREPQVYTLPPCRDWLTKNQVSLTCLVKGFYPSDIAVEWESNGQPENNYKTTPPVLDSDGSFFLYSKLTVDKSRWQQGNVFSCSVMHEALHNHYTQKSLSLSPGK heavy 2: not shown light 2: EVQLVESGGGLVQPGGSLRLSCAASGFTFSWYYIHWVRQAPGKGLEWVAVIDPISSYTYYADSVKGRFTISADTSKNTAYLQMNSLRAEDTAVYYCARGFDRAMDYWGQGTLVTVSSASTKGPSVFPLAPSSKSTSGGTAALGCLVKDYFPEPVTVSWNSGALTSGVHTFPAVLQSSGLYSLSSVVTVPSSSLGTQTYICNVNHKPSNTKVDKKVEPKSC
